Assay results published in article PMC11309785, “Vaccine priming of rare HIV broadly neutralizing antibody precursors in non-human primates” (Science (New York, N.Y.), 2024).

B1: RM_N332_32 Fab (Fab, V domains shown)
VH: QLQLQESGPGLVKPSETLSLTCAVSGGSISDYCWNWIRQPPGKGLEWIGYIGGSSGSTYYNPSLKGRVTISADTSENRFSLKLSSVTAADTAVYYCARSPITVFGVVIFDEYTTGNLDLWGPGTPISISS
VL: DIQMTQSPSSLSASVGDKVTITCHASQDISSWLAWYQQKPGKAPKPLIYYASSLQSGVPSRFSGSGSGTDYTLTITSLQPEDFATYYCQQYDDLPFTFGPGTKLDIK
notes: human Fab heavy chain constant region from the vector pFabCW; human kappa constant region from the vector pCW-CLig-hk; Macaque variable regions on human constant regions; The deposited model may hold the Fv only; also called BG18 type I Fab with kappa light chain; source: FreeStyle 293F or ExpiCHO cells, purified (CaptureSelect CH1-XL)
B2: RM_N332_36 Fab (Fab, V domains shown)
VH: QVTLKESGPALVKPTQTLTLTCTFSGFSLSTNYMGVDWIRQPPGKALEWLARIYWNDDKYYSTSLKSRLTISKDTSKNQVVLTMSNMDPVDTATYYCARVKLSVWGVLQFFEWSDYGLDSWGQGVVVTVSS
VL: SYVLTQPPSVSVSPGQTARITCGADNIGSQSVHWYQQKSPQAPVLVISADTERPSGIPERFSGSNSGNTATLTISGVEAGDEADYYCQVWDSDSKYALFGGGTRLTVL
notes: human Fab heavy chain constant region from the vector pFabCW; human lambda constant region from the vector pCW-CLig-hL2; Macaque variable regions on human constant regions; The deposited model may hold the Fv only; also called BG18 type I Fab with D3-41 in alternate reading frame; source: FreeStyle 293F or ExpiCHO cells, purified (CaptureSelect CH1-XL)

Target: T1, N332-GT5 trimer, C-terminal His-tagged (captured ligand of the SPR) (HIV-1 isolate BG505 (N332-GT5 …, stabilised))
T1 construct: HIV-1 envelope (Env) of isolate BG505, gp120 part of the germline-targeting trimer N332-GT5, co-expressed with furin; S18, coordinates in PDB 8T4K; HIV-1 envelope (Env) of isolate BG505, gp41 ectodomain part of the trimer N332-GT5; MD65 = MD39 stabilising mutations plus V505T, V513A, V518S, L520D; also called N332-GT5 WT; source: 293F cells, co-transfected with furin, purified (HIS-TRAP, SEC); …
Assay: SPR; ProteOn XPR36, HC30M XanTec chip; His-tagged trimer (300 to 400 RU, 1 ug/mL) captured by immobilised rabbit anti-His-tag pAb, Fab flowed as analyte at 30 ul/min for 3 min, 5 min dissociation; 1x HBS-EP+ pH 7.4 with BSA 1 mg/ml; equilibrium or kinetic (Langmuir) fits; highest concentration 2x10^-5 M, approximate upper affinity limit 1.6x10^-11 M
Conditions: both partners purified

Binder | Kd [nM]
B1 | 0.081
B2 | 0.038
